This experiment concerns the target murine GM-CSF receptor (murine) (UniProt Q00941). The experiment can be described thus: cell-based or functional assay.

Drawing on US20040170960A1, this text covers proliferation of FDC-P1 cells (Biotrak BrdU cell proliferation ELISA) for 1 substance.

Chain of UniProt Q00941 (Q00941 30-388, chain 1 of 2): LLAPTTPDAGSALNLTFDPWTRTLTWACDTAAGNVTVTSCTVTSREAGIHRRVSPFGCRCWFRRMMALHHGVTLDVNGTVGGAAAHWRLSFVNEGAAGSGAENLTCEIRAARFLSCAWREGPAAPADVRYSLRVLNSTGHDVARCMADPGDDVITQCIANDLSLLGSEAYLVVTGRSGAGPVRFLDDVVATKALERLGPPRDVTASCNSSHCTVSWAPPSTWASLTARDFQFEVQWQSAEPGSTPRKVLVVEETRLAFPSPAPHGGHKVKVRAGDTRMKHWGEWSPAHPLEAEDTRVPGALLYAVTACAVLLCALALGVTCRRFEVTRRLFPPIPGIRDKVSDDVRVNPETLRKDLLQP
Chain of UniProt Q00941 (P26955 23-896, chain 2 of 2, further chain): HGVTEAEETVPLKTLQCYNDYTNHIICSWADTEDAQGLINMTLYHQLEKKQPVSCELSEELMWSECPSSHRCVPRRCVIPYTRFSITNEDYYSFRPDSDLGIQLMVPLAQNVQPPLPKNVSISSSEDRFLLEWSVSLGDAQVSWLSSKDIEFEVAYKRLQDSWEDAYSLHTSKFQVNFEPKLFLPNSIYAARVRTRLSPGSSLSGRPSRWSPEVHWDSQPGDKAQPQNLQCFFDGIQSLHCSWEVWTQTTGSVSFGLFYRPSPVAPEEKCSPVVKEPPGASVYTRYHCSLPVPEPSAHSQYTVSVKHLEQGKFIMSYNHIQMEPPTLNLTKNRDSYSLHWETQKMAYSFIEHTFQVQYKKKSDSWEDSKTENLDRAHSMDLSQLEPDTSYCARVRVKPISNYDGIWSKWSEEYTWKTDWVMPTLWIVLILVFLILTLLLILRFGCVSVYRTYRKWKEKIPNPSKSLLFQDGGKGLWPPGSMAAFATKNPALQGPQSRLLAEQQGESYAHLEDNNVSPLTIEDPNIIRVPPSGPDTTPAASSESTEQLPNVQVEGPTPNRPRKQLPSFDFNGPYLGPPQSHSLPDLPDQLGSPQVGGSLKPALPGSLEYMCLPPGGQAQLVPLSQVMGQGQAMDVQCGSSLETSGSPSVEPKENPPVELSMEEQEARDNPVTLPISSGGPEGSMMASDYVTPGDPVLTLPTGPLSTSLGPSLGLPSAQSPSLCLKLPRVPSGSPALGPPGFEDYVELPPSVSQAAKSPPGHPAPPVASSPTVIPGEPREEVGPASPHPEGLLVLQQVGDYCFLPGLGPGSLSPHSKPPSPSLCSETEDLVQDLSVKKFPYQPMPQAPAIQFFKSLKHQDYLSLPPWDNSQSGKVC

For “murine GM-CSF fused to the S. cerevesiae Gas1 GPI modification signal sequence (from UniProt P01587 18-141; P22146 474-559) (other; the values are: proliferation increase vs soluble GM-CSF)”, the proliferation of FDC-P1 cells (Biotrak BrdU cell proliferation ELISA) came out at 25%.
